Data as given in US20090117593A1, “T. Cruzi-derived neurotrophic agents and methods of use therefor” (Tufts University, priority 2006, published 2009).
Entries after “also recorded” stand apart in the source; their conditions may differ.

Columns and labels:
IL-6 [1] = assay: IL-6 secretion by PBMC (ELISA); type: cell-based, human; settings: 24 hours
Description: (§1) Primary cultures of human intestinal microvascular endothelial cells (HIMEC) isolated from normal jejunal mucosa/submucosal tissue were prepared as described (Strong et al., Gastroenterology 114:1244-1256 (1998)). The HIMEC were cultured in fibronectin-coated plasticware in MCDB medium (Sigma) supplemented with 20% FBS, 90 μg/ml heparin and 50 μg/ml endothelial cell growth factor (Sigma). T-24 cells (ATCC Accession No. HTB-4) were cultured in M199 medium supplemented with 10% FBS. PBMC were purified by Ficoll-Paque gradient as described (Current Protocols in Immunology, pp 7.1.1-7.1.2). Vero cells (ATCC Accession No. CCL-81) were grown in RPMI medium with 5% Nu serum and infected with the Silvio X-10/4 of T. cruzi as described previously (Chuenkova et al., J. Exp. Med. 181:1693-1703 (1995)).
(§2) Endothelial cells and T-24 cells were plated on 24-well plates at a density of 1×10^3 cells/well, while peripheral blood mononuclear cells (PBMC) were plated in the similar wells at 1×10^6/well. Triplicat cultures of cells were incubated test agents for a predetermined amount of time. […] Cytokines and chemokines released in the culture supernatants were measured by ELISA assay following the instructions of the manufacturer (Endogen). The cytokines tested were IL-1β, IL-4, IL-8, […], IL-12, IFN-γ, TNF-α, and the chemokines RANTES and MCP-1. Negative controls were cells incubated in medium containing polymixin B at 10 μg/ml, and positive controls were cells incubated with bacterial LPS at the low ng/ml range (for PBMC or HIMEC) or in the μg/ml range for carcinoma T-24 cells. In some experiments, IL-1β or TNFα were used as positive control for cytokine release.
TR peptides (Table 2) were synthesized at the Tufts Synthesis Facility (Boston, Mass.). Each peptide was purified by HPLC, and the number of amino acids and molecular weight of each peptide verified by mass spectrometry. Peptides were dissolved in growth medium (10% FCS in RPMI) and added at various concentrations to 1×10^6 PBMC/well in 24-well plates. After 24 hours, IL-6 was assayed by ELISA in the conditioned supernatants.

IL-6 [2] = assay: IL-6 secretion by T-24 carcinoma cells (ELISA); type: cell-based, human; settings: 24 hours
Description: as §1, §2

Trans-sialidase assay = type: biochemical
Description: The trans-sialidase assay was performed as described (Scudder, P. et al., J. Biol. Chem., 268:9886-9891 (1993)) with slight modifications. Various amounts of intact enzyme or enzyme fragments were added to 50 mM PBS, Ph 7.2, containing 15% fetal calf serum and […] of [^14C]N-acetyllactosamine (4×10^5 dpm), 50 μg BSA and 0.02% NaN3 in a volume of 60 μl. After incubation for a predetermined amount of time at room temperature, the reaction mixture was diluted to 1.0 ml with distilled water and applied to a column containing 1.0 ml Q-Sepharose equilibrated with water. Sialylated product was eluted with 1 M NaCl and quantified by scintillation counting.
TS enzymatic activity was measured by the sialylation of the acceptor ^14C-labeled N-acetyllactosamine on anion exchange resins (Scudder, P. et al., J. Biol. Chem. 268:9886-9891 (1993)). Recombinant TSA-1, was expressed on insect sf9 cells and purified from serum-free medium by ion exchange chromatography (monoQ) and preparative SDS-PAGE (Wrightsman, R. A. et al., J. Immunol., 153:3148-3154 (1994).

neuroblastoma N18 cells = assay: Neurite outgrowth assay in N18 cells; type: cell-based; settings: soluble or immobilized on plastic (500 μg/ml coating), 17 hours
Description: 96-well microtiter plates were coated overnight at 4° C. with the TS or peptides or fragments thereof, or with control proteins laminin (Ln) or bovine serum albumin (BSA) at 500 μg/ml. After removing the compounds, the plates were further incubated with 1% BSA for 1 hour at room temperature and immediately used as substratum for PC12 or N18 (Prasad, K., Biol. Rev. Camb. Philos. Soc., 66:431-451 (1991)) cells in serum-free RPMI/0.2% BSA. Neurite outgrowth was measured using a phase-contrast microscope 17 hours later.

PC12 cells = assay: Protection of PC12 cells from apoptosis induced by trophic factor withdrawal (DAPI, TUNEL); type: cell-based; settings: serum-free RPMI-1640/0.2% BSA, 17 hours, DAPI or TUNEL
Text: PC12 cells were obtained from ATCC (Manassas, Va. (Accession No. CRL-1721)) and cultured on collagen-coated dishes in RPMI 1640 supplemented with 10% horse serum and 5% fetal bovine serum (Greene, L., and Tishler, A., Proc. Natl. Acad. Sci. USA, 73:2424-2428 (1976)). For differentiation and survival experiments, cells were washed three times in serum-free RPMI/0.2% BSA, plated in the same medium in collagen-coated plastic dishes at 2×10^5/ml, without and with growth factors, TS, recombinant proteins, synthetic peptides, for the time and concentrations indicated in the Figures.
Cell staining with 4,6-diamino-2-phenylindole (DAPI). Cells were fixed with 4% formaldehyde in PBS for 5 minutes, washed with PBS, stained with 10 μg/ml DAPI (Sigma) for 2 minutes, washed with PBS, and visualized under UV light using a fluorescent microscope. About 300-400 cells were examined under the microscope to determine the percentage of apoptotic cells.
Cell DNA nick end labeling (TUNEL) (Gavrieli, Y. et al., J. Cell. Biol., 119:493-501 (1992)) assay was performed using a kit purchased from Boehringer Mannheim as described by the manufacturer.
Protection against apoptosis of PC12 cells in serum-free medium containing a test agent (agent N) (e.g., protection induced by TS, TS fragments, NGF or other growth factors), was calculated by the formula: 100%−[(apoptosis(%) of cells kept in RPMI containing test agent N÷apoptosis (%) of cells kept in RPMI)×100%]. Testing the effect of Wortmannin (Sigma) and LY294002 (Sigma) in inhibiting the neuroprotection of TS was performed following the protocol described by others (Yao, R., and Cooper, G., Science, 267:2003-2006 (1995); D'Mello, et al., J. Neurosci., 17:1548-1560 (1997)). In brief, PC12 cells were switched from growth medium to RPMI without and with TS or various other growth factors. After 24 hours, Wortmannin and LY294002 were added to the cultures. After another 24 hours, cells were examined for apoptosis by the DAPI assay, as above.

human Schwann cells = assay: Serum withdrawal-induced apoptosis of Schwann cells (DAPI); type: cell-based
Akt kinase [3] = assay: Immunodetection of activated Akt in PC12 cells; type: cell-based; settings: Western blot, phospho-Akt (Ser 473) antibody; 100 ng/ml
Description: PC12 cells were deprived of serum for 24-48 hours, stimulated with TS, TS-F or LTR for 2, 5 or 10 minutes and immediately lysed with 2% SDS. In studies using the PI-3 kinase inhibitor, LY294002 (LY), cells were pre-treated with the inhibitor (1 μM) for 30 min prior to the addition of TS-F or TS. The proteins in the cell lysate were separated in SDS-10% polyacrylamide gels, transferred to nitrocellulose membrane (Bio-Rad) and the phosphorylated form of protein kinase Akt was detected with phospho-Akt (Ser 473) antibody (New England BioLabs, Beverly, Mass.), followed by alkaline phosphatase-conjugated secondary antibody (Promega, Madison, Wis.). Bands corresponding to phospho-Akt (60 kDa) were quantified using a scanning densitometer (Bio-Rad).

Akt kinase [4] = assay: Immunodetection and kinase assay of activated Akt in Schwann cells
Description: Schwann cells, grown in 10% FCS to 70% confluency in 6-well plates, were switched to DMEM containing 0.1% FCS for 48 hours to reduce basal Akt phosphorylation. Then the cells were placed in serum-free DMEM medium for 2 hours and challenged with TS, CD or other test factors for predetermined periods of time. When the PI-3 kinase inhibitor LY294002 (Sigma) was used, the inhibitor was added to the serum-starved cells 30 minutes before challenge with TS or CD. Cell samples were lysed with lysis buffer (20 mM Tris, pH 7.5, 150 mM NaCl, 1 mM EDTA, 1% Triton X-100 (t-Octylphenoxypolyethoxyethanol), 2.5 mM sodium pyrophosphate, 1 mM glycerophosphate, 1 mM Na3VO4, 1 μg/ml leupeptin and 1 mM Phenymethylsulfonyl fluoride (PMSF)). Samples (40 μg) were run on 10% SDS-Page, blotted to nitrocellulose paper and analyzed by Western (immuno) blot with monoclonal antibody specific for P-Ser473 of Akt (New England Biolabs). Reaction was visualized by chemiluminescence using the ECL kit (New England Nuclear).
Enzymatic activity of Akt kinase was assessed using the synthetic substrate GSK-3α-fusion protein (Cell Signaling Technology, Beverly, Mass.), according to the protocol provided by Cell Signaling Technology. In short, lysates of Schwann cells subjected to various treatments were immunoprecipitated with Akt antibody coupled to agarose beads, and the immunoprecipitates incubated with GSK-3α-fusion protein as the substrate for Akt phosphorylation, in the presence of 200 μM ATP. Phosphorylation of GSK-3 fusion protein was detected by Western blot using phospho-GSK-3αβ (Ser21/9)-specific antibody (Cell Signaling Technology). The reaction product was identified by chemiluminescence using the ECL kit (New England Nuclear).

B1: TS-154: recombinant catalytically active trans-sialidase construct with 5 tandem repeat units (protein, listed as Trypanosoma cruzi)
chain: KKKQVFSKIFYSEDEGKTWKFGEGRSDFGCSEPVALEWEGKLIINTRVDYRRRLVYESSDMGNSWVEAVGTLSRVWGPSPKSNQPGSQSSFTAVTIEGMRVMLFTHPLNFKGRWLRDRLNLWLTDNQRIYNVGQVSIGDENSAYSSVLYKDDKLYCLHEINSNEVYSLVFARLVGELRIIKSVLQSWKNWDSHLSSICTP
IL-6 secretion by PBMC (IL-6 [1]): as powerful as enzymatically-inactive TS-H32 in stimulating IL-6 secretion | IL-6 secretion by T-24 cells (IL-6 [2]): as powerful as enzymatically-inactive TS-H32 in stimulating IL-6 secretion | trans-sialidase (enzymatic) activity (Trans-sialidase assay): enzymatically-active

B2: TS-F: recombinant full catalytic domain of TS, amino acid residues 33-666 (protein, listed as Trypanosoma cruzi)
chain: ETQIAIKNSRVSSVSRVVDPTVIVKGNKLYVLVGSYYSSRSYWSSHGDARDWDILLAVGEVTKSTAGGKITASIKWGSPVSLKKFFPAEMEGMHTNQFLGGAGVAIVASNGNLVYPVQVTNKRKQVFSKIFYSEDDGKTWKFGKGRSDFGCSEPVALEWEGKLIINTRVDWKRRLVYESSDMEKPWVEAVGTVSRVWGPSPKSNQPGSQTSFTAVTIEGMRVMLFTHPLNFKGRCVRDRLNLWLTDNQRIYNVGQVSIGDENSAYSSVLYKDDKLYCLHEINTDEVYSLVFARLVGELRIIKSVLRSWKNWTATCPAFAPLLIQPLRRQRVVVVPLSPRLVLLAFCRQRLPKRMGGSYRCVNASTANAERVRNGLKFAGVGGGALWPVSQQGQNQRYRFANHAFTLVASVTIHEAPRAASPLLGASLDSSGGKKLLGLSYDEKHQWQPIYGSTPVTPTGSWETGKRYHLVLTMANKIGSVYIDGELLEGSGQTVVPDGRTPDISHFYVGGYKRSDMPTISHVTVNNVLLYNRRQLNTEEIRTLFLSQDLIGTEAHMDSSSDSSAHSTPSTPADSSAHSTPSTPVDSSAHSTPSTPADSSAHGTPSTPVDSSAHGTPSTPADSSAHGTPSTPVDS
neurite outgrowth in N18 cells (neuroblastoma N18 cells): induced neurite outgrowth to about the same extent as the intact enzyme | protection of PC12 cells from apoptosis induced by trophic factor withdrawal (PC12 cells): PC12 cell survival being induced by TS-F | survival of Schwann cells transfected with dominant negative PTEN mutant (pG129R) (human Schwann cells; CD 500 ng/ml): did not detectably enhance Akt phosphorylation and survival | survival of control Schwann cells transfected with GFP vector (human Schwann cells; CD 500 ng/ml, serum-free, 48 hours): did increase survival of the cells | survival of Schwann cells over expressing kinase-inactive Akt (AktKI) (human Schwann cells; CD 500 ng/ml, serum-free, 48 hours, listed as CD): did not increase survival of the cells; also recorded: did not promote survival | fragmented nuclei in Schwann cells transfected with empty vector (neo) (human Schwann cells; CD 500 ng/ml, serum-starved): decreased the number of fragmented nuclei by about ten-fold | rescue from apoptosis of Schwann cells over expressing PTEN (human Schwann cells; CD 500 ng/ml, listed as CD): did not rescue cells from apoptotic death; also recorded: did not rescue Schwann cells that over expressed PTEN from apoptosis | inhibition of serum withdrawal-induced apoptosis of Schwann cells (human Schwann cells; serum-free DMEM, 24-72 hours, listed as CD): protected Schwann cells against apoptosis; also recorded: nearly as effective in protecting Schwann cells from apoptosis as 2% serum; also recorded: protected human Schwann cells from apoptosis; also recorded: nearly as effective as 2% serum at inhibiting apoptosis; also recorded: dose-dependent inhibition of serum withdrawal-induced apoptosis | phosphorylation (activation) of Akt kinase in PC12 cells (Akt kinase [3]): effective in activating Akt | IL-6 secretion by T-24 cells (IL-6 [2]): did not promote IL-6 release from T-24 cells | trans-sialidase (enzymatic) activity (Trans-sialidase assay): enzymatically active | Akt phosphorylation in Schwann cells transfected with dominant negative PTEN mutant (Akt kinase [4]; CD 500 ng/ml): did not detectably enhance Akt phosphorylation | Akt phosphorylation in Schwann cells transfected with empty vector (neo) (Akt kinase [4]; CD 500 ng/ml): boosted levels of phospho-Akt | time within which CD activated Schwann cell Akt kinase (Akt kinase [4]; CD 500 ng/ml): 1 to 5 min | transience of Akt activation in Schwann cells (Akt kinase [4]; CD 500 ng/ml): phospho-Akt not detected after 15 min | Akt kinase activity in control GFP-transfected Schwann cells (Akt kinase [4]; CD 500 ng/ml, 2 minutes, GSK-3α substrate): stimulation of Akt activity | Akt kinase activity in Schwann cells over expressing AktKI (Akt kinase [4]; CD 500 ng/ml, 2 minutes, GSK-3α substrate, listed as CD): inability of CD to enhance endogenous Akt enzymatic activity; also recorded: did not activate Akt kinase | Akt phosphorylation in Schwann cells over expressing PTEN (Akt kinase [4]; CD 500 ng/ml, listed as CD): did not result in the generation of phospho-Akt; also recorded: did not induce phosphorylation of Akt kinase | phosphorylation (activation) of Akt kinase in Schwann cells (Akt kinase [4]; Western blot P-Akt (Ser473), listed as CD): induced transient phosphorylation of Akt kinase
